Results on 2 substances are retold here after paper PMC9544252.

Assay [1] has as its target HIV-1 CAP256 SU Env gp140 produced in HEK293 cells (HIV-1 (subtype C, CAP256 SU)). Description: SEC; gel filtration of lectin-purified gp140; normalised, overlaid elution profiles.
Assay [2] deals with HIV-1 CAP256 SU Env gp140, "glycan-enhanced" (GE), produced in N. benthamiana ∆XF (HIV-1 (subtype C, CAP256 SU)). The description is as above.

For the substance “HIV-1 CAP256 SU Env gp140 produced in HEK293 cells (natural protein)”, the stoichiometry N in assay [1] is 3.
Take “HIV-1 CAP256 SU Env gp140, "glycan-enhanced" (GE), produced in N. benthamiana ∆XF (natural protein)”: the stoichiometry N in assay [2] was determined as 3.
